The target in assay [1] is T1, rHuman Erythropoietin R/Fc Chimera, CF (R&D Systems Cat#963-ER) (human, UniProt P19235 25-250).
T1 construct: Bought from R&D Systems; also called EPO R/Fc; Epo R/Fc chimera; not shown: Fc of the bought chimera
T1 sequence (looked up): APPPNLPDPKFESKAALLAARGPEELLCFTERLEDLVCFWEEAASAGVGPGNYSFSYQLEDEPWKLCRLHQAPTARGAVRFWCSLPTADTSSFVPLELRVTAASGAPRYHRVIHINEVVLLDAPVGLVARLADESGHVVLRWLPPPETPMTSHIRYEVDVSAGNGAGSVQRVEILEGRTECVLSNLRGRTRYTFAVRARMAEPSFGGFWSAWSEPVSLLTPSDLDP
As to the kind of experiment: MSD multispot ECL, antigen spotted on plate, Fab 11 nM; blank spot 212.

The target of assay [2] is T2, rHuman IGF-1 sR, (IGF-1 sR), CF (R&D Systems Cat#391-GR) (human, UniProt P08069 31-932).
T2 construct: Bought from R&D Systems and called a soluble receptor; also called insulin-like growth factor-1 soluble receptor
Described as above.

Assay [3] concerns the target T3, rHuman EGF R/Fc Chimera, CF (R&D Systems Cat#344-ER) (human, UniProt P00533 25-645).
T3 construct: Bought from R&D Systems; also called epidermal growth factor receptor (EGF R); not shown: Fc of the bought chimera
Described as above.

Assay [4] has as its target T4, rHuman P-Cadherin/Fc Chimera, CF (R&D Systems Cat#861-PC) (human, UniProt P22223 108-654).
T4 construct: Bought from R&D Systems; not shown: Fc of the bought chimera
The description is as above.

For assay [5], the target named is T5, rHuman ErbB2/Fc Chimera, CF (R&D Systems Cat#1129-ER) (human, UniProt P04626 23-652).
T5 construct: Bought from R&D Systems; also called human epidermal growth factor 2 receptor (ErbB2); not shown: Fc of the bought chimera
Described as above.

For assay [6], the target named is T6, rHuman CD44/Fc Chimera, CF (R&D Systems Cat#3660-CD) (human, UniProt P16070 21-220).
T6 construct: Bought from R&D Systems; not shown: Fc of the bought chimera
Described as above.

For assay [7], the target named is T7, rHuman P-Cadherin/Fc Chimera, CF (R&D Systems Cat#861-PC) (human, UniProt P22223 108-654).
T7 construct: Bought Fc chimera; Fc part of the bought chimera not given
Kind of assay: Multispot ECL (MSD) titration; antigen spotted on plate; Fab 98.1 nM; blank spot 210.

Assay [8] addresses T8, rHuman HGF R/c-MET/Fc Chimera, CF (R&D Systems Cat#358-MT/CF) (human, UniProt P08581 25-932).
T8 construct: Bought Fc chimera; also called HGF R/Fc; hepatocyte growth factor receptor; Fc part of the bought chimera not given
Described as above.

The target of assay [9] is T9, rHuman Erythropoietin R/Fc Chimera, CF (R&D Systems Cat#963-ER) (human, UniProt P19235 25-250).
T9 construct: Bought Fc chimera; also called EPO R/Fc; EPO R; Fc part of the bought chimera not given
T9 sequence (looked up): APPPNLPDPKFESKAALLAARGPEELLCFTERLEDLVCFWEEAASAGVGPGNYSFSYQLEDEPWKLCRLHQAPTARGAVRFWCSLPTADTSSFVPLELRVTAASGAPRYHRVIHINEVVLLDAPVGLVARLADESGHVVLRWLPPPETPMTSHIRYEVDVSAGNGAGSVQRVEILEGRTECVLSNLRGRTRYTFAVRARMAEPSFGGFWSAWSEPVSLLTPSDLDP
Described as above.

In assay [10] the target is T10, Recombinant Human DLL4 (R&D Systems Cat#1506-D4/CF) (human, UniProt Q9NR61 27-524).
T10 construct: Bought recombinant protein; also called delta-like protein 4; rHuman DLL4
Described as above.

Assay [11] deals with T11, rHuman Notch-1/Fc Chimera, CF (R&D Systems Cat#3647-TK) (human, UniProt P46531 19-526).
T11 construct: Bought Fc chimera; Fc part of the bought chimera not given
The description is as above.

Assay [12] has as its target T12, rHuman IGF-1 sR (IGF-1 sR), CF (R&D Systems Cat#391-GR) (human, UniProt P08069 31-932).
T12 construct: Bought soluble receptor; also called insulin-like growth factor-1 soluble receptor
The description is as above.

Assay [13] addresses T13, rHuman CD44/Fc Chimera, CF (R&D Systems Cat#3660-CD) (human, UniProt P16070 21-220).
T13 construct: Bought Fc chimera; Fc part of the bought chimera not given
The description is as above.

Assay [14] deals with T14, rHuman ErbB2/Fc Chimera, CF (R&D Systems Cat#1129-ER) (human, UniProt P04626 23-652).
T14 construct: Bought Fc chimera; also called human epidermal growth factor 2 receptor; Fc part of the bought chimera not given
The description is as above.

Assay [15] deals with T15, rHuman Notch-1/Fc Chimera, CF (R&D Systems Cat#3647-TK) (human, UniProt P46531 19-526).
T15 construct: Bought recombinant protein; Fc part of the bought chimera not given
Kind of assay: Multispot ECL (MSD), antigen spotted on plate, Fab 500 nM; blank spot 680.

The target in assay [16] is T16, rHuman Erythropoietin R/Fc Chimera, CF (R&D Systems Cat#963-ER) (human, UniProt P19235 25-250).
T16 construct: Bought recombinant protein; also called EPO R/Fc; Epo R; Fc part of the bought chimera not given
T16 sequence (looked up): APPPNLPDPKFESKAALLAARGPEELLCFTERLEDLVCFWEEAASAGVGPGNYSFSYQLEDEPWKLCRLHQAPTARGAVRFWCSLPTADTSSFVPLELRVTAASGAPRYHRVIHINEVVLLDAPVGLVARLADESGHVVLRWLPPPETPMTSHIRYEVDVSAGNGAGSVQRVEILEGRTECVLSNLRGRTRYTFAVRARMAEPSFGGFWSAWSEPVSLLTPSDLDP
Described as above.

Assay [17] addresses T17, Recombinant Human DLL4 (R&D Systems Cat#1506-D4/CF) (human, UniProt Q9NR61 27-524).
T17 construct: Bought recombinant protein; also called rHuman DLL4; delta-like protein 4
Described as above.

For assay [18], the target named is T18, rHuman IGF-1 sR, CF (R&D Systems Cat#391-GR) (human, UniProt P08069 31-932).
T18 construct: Bought recombinant soluble receptor; also called insulin-like growth factor-1 soluble receptor
Described as above.

T8 sequence (P08581 25-932, change not shown): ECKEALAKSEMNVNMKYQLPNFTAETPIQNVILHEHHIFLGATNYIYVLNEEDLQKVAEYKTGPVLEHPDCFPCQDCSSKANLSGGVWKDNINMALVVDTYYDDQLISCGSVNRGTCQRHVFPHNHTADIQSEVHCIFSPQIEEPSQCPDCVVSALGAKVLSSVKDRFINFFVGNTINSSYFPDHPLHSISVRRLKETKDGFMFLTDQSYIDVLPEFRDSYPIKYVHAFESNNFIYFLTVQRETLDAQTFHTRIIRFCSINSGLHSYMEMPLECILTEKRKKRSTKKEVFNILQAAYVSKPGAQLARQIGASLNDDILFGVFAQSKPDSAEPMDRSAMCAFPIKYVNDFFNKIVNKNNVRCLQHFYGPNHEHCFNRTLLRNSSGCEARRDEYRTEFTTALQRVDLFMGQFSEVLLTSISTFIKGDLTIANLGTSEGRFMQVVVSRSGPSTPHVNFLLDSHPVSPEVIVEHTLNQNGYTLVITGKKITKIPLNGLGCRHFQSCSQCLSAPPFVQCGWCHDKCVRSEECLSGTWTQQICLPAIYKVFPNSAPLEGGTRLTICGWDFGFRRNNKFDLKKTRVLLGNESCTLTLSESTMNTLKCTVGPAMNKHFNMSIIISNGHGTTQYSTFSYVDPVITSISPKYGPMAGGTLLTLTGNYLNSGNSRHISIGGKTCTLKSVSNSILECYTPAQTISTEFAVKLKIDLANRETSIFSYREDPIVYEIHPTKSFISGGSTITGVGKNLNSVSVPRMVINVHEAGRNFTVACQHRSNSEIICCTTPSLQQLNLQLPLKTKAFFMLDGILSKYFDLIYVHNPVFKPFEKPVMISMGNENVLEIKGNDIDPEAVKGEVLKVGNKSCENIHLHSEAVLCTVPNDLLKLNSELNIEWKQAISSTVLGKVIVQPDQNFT

B1: Fab VH1-46_IGHD3-10*01_IGHJ4*01 & B3_IGKJ1*01 (Fab, V domains shown)
VH: QVQLVQSGAEVKKPGASVKVSCKASGYTFTSYYMHWVRQAPGQGLEWMGIINPSGGSTSYAQKFQGRVTMTRDTSTSTVYMELSSLRSEDTAVYYCAREYYYGSGSYYNDYFDYWGQGTLVTVSS
VL: not shown
notes: Tested as a Fab made in E. coli; VH was cloned into Plasmid A (CH1 constant region, His6 and Flag tags); The kappa VL was cloned into Plasmid C (kappa CL)
With B1, the ECL signal was determined as 1820 in assay [1]; 289 in assay [2]; 201 in assay [3]; 270 in assay [4]; 216 in [5]; 296 in assay [6].

B2: Fab VH1-46_IGHD3-10*01_IGHJ4*01 & O1_IGKJ1*01 (Fab, V domains shown)
VH: QVQLVQSGAEVKKPGASVKVSCKASGYTFTSYYMHWVRQAPGQGLEWMGIINPSGGSTSYAQKFQGRVTMTRDTSTSTVYMELSSLRSEDTAVYYCAREYYYGSGSYYNDYFDYWGQGTLVTVSS
VL: DIVMTQTPLSLPVTPGEPASISCRSSQSLLDSDDGNTYLDWYLQKPGQSPQLLIYTLSYRASGVPDRFSGSGSGTDFTLKISRVEAEDVGVYYCMQRIEFPSWTFGQGTKVEIKR
notes: Germline library Fab expressed in E. coli; VH was cloned into Plasmid A (CH1 constant region, His6 and Flag tags); The kappa VL was cloned into Plasmid C (kappa CL)
Consider B2, for which the ECL signal in [7] amounted to 347; in [8], 335; in assay [9], 5630; in assay [10] it was 402; in assay [11] it was 313; in assay [12], 309. The ECL signal in assay [13] was 265; in assay [14], 247.

B3: Fab VH1-46_IGHD6-13*01_IGHJ4*01 & B3_IGKJ1*01 (Fab, V domains shown)
VH: QVQLVQSGAEVKKPGASVKVSCKASGYTFTSYYMHWVRQAPGQGLEWMGIINPSGGSTSYAQKFQGRVTMTRDTSTSTVYMELSSLRSEDTAVYYCAREGYSSSWYDYFDYWGQGTLVTVSS
VL: not shown
notes: Germline Fab made in E. coli; VH was cloned into Plasmid A (CH1, His6 and Flag tags) and the kappa VL into Plasmid C (kappa CL)
Consider B3, for which the ECL signal in assay [15] came out at 1980; in assay [16], 10300; in [17], 2320; in assay [18], 1330.

Values taken from patent US20120316071A1 (published 2012).
